Reference: article PMC12120064

Experiments:
Assay in all cases: CEACAM1 co-IP (PLA also mentioned)
Settings in all cases: reference: full-length 4L CEACAM1; sites Y493,Y520
SHP-1 = SHP-1 (UniProt P29350)
SYK = SYK (UniProt P43405)
filamin A (FLNA) = filamin A (FLNA) (UniProt P21333)

Measured: binding against the reference

CEACAM1 (CEACAM1-4L) (from UniProt P13688) Y493F/Y520F
weaker: all assays above
